Measured values: patent US9377466B2, “Compounds and methods” (Modpro AB, priority 2010, dated 2016)
pKd: −log10 of the molar value. Where two headings read alike, the source gives them in different places. Side chains are listed from the residue outwards. Ends that are not written are not given here. * marks the point of attachment. Benzoyl(4-SO2NH2) = NS(=O)(=O)c1ccc(C(=O)*)cc1; X1 = COc1ccc2cc(C(=O)*)c(=O)oc2c1; Ahx = NCCCCCC(=O)O

Tests used:
[1] = CD spectroscopy, mean residue ellipticity of the sixteen scaffold polypeptides; type: physicochemical; conditions: error ±1000; for [θ]222 at high concentration: high concentration 30-230 μM as listed per peptide; for [θ]222 at low concentration: low concentration 1-5 μM as listed per peptide
Experimental: The mean residue ellipticities at 222 nm, [θ]222, □ of the sixteen scaffold polypeptides were recorded at two concentrations, approximately 30 μM and approximately 1 μM, to characterize the state of aggregation, cf.
The degree of helix formation is related to the monomer-dimer equilibrium since monomers are unordered with low helical content whereas dimers are highly helical. […] While the ^1H NMR spectra have not been recorded of all sequences and of all polypeptide conjugates, it is likely that the sequences presented here are best described as molten globules.

thymidine kinase (TK) [2] = assay: Fluorescence binding studies with TK; conditions: 2 μM peptide, one and two equivalents of TK
Experimental: Estimating that at least 60% of the peptides were then bearing the ligand, the solution was diluted to 2 μM concentration and the protein TK was added. The fluorescence response was screened after 15 min, 45 min, 2 hrs, and 20 hrs. A maximal response was seen after 2 hours of incubation time.
A NUNC™ polystyrene 384 well plate (100 μl-volume) and pipette-tips were coated with Pluronic® overnight, then washed with H2O and dried. The fluorescence-measurement was carried out in Tris-buffers (Buffer for TK-studies: 20 mM Tris/HCl, 0.4 M NaCl, 0.3 M imidazole, 2 mM DTT, 50% glycerol, pH 7.6). Assuming that at least 60% of the dT-binder was conjugated to the polypeptides (see 0), stock-solutions were prepared with a concentration of 60 μM. The concentration of the TK stock solution was 0.10 mM. A polypeptide concentration of 2 μM in […] was used. The protein was added to wells containing the peptide conjugates to give final TK concentrations of 2 or 4 μM. Fluorescence intensities of protein-binder mixtures were compared to intensities of binders without protein and a significant change in fluorescence intensity in the presence of one equivalent of protein, in comparison to that of binder without protein, was interpreted as complexation of target protein by the binder. Binders showing a change in intensity in the presence of 2 μM protein but no further change in intensity in the presence of 4 μM protein were considered “hits”.
The dansyl probe was excited at 335 nm and emission was recorded 420-600 nm. All measurements were performed at room temperature and were made in triplicates. The wells were read after 15 min, 45 min and 2 hours.

hAChE = conditions: known inhibitor, literature; cited from earlier work
HCAI = biological target: T1, HCAI (Homo sapiens, UniProt P00915); conditions: literature, read-out: dissociation constant Kd for HCAI, cited from earlier work
T1 construct: purchased Sigma
T1 sequence (P00915 whole entry): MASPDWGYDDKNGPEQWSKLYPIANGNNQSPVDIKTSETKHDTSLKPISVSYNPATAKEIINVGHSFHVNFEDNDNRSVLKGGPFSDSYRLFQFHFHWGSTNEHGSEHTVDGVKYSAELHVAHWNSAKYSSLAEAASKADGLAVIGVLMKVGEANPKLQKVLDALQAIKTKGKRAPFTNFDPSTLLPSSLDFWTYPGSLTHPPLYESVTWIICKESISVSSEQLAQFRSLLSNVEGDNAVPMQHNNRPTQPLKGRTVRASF

thymidine kinase (TK) [3] = assay: Binding studies with TK in the presence of ATP (fluorescence, MALDI-TOF); conditions: for binding affinity to TK (in words): 1, 2 and 3 eq. TK, buffer with and without ATP; for time after which peptide is fully phosphorylated (MALDI-TOF): TK, buffer with ATP
Experimental: The fluorescence intensities were measured in presence of 1, 2 and 3 eq. TK in buffer with and without ATP. The introduction of ATP represents a realistic measurement situation as it is present in biological samples and is likely to react with the probe in the presence of TK. Data were collected 15 min, 45 min and 2 hrs after adding the enzyme. The samples for MALDI-TOF were collected appr. 5 mins, 45 mins and 2 hours after adding the enzyme to measure the change in masses.

[4] = system: human Carbonic Anhydrase (HCAI and HCAII); assay: Extraction from lysed blood by binders on nanoparticles (SDS-PAGE, MS); type: binding; conditions: lysed fresh blood, silver stained gel
Experimental: The selected binders were resynthesized with an Acm-protected Cys residue in position 24. After removal of the Acm group the binders were immobilized on polystyrene nanoparticles coated with Pluronic® F108-PDS, by incubation for 1 hour in 10 mM Phosphate buffer at pH 7.4 containing 150 mM NaCl. The coating material forms monolayers of PEG equipped with activated disulfide groups that spontaneously react with free thiols under the release of 2-mercaptopyridine (Fromell, K., Hulting, G., Ilichev, A., Larsson, A. & Caldwell, K. C. Analytical Chemistry 79, 8601-07 (2007)).
Approximately 60 μL of freshly drawn blood was lysed by dilution in 240 μL of distilled water followed by centrifugation to remove cell debris. HCAII resides in the red blood cells and in order to access the protein, cells have to be lysed. The supernatant was isolated and incubated with the functionalized nanoparticles for 30 minutes to allow them to capture HCAII. The particles were washed three times in PBS, and centrifuged after each wash. The binders and the captured proteins were cleaved from the particles using dithiothreitol and separated from the particles by centrifugation. […]
There are two isoforms of human Carbonic Anhydrase, HCA I and HCAII, in blood. […] The bands from the gel were cut, […] digested and analysed by MALDI-TOF-MS, displaying that the bands contained both isoforms. […]

Molecule: 2-C37L34: SEQ ID NO: 14 NAADLEAAIRHLAERLAARGPVDAAQLAEQLAAKFEKFARAG
- [θ]222 at high concentration [1]: −23900 deg cm^2 dmol^−1
- [θ]222 at low concentration [1]: −30300 deg cm^2 dmol^−1

Molecule: 3-C10L17-dT: polypeptide 3-C10L17 conjugated to deoxy-thymidine (dT) probe 19 (NAADLEARIKHLAERLKARGPVDAAQLAEQLARAFEAFARAG; also: conjugated to deoxy-thymidine (dT) probe 19, site not given here)
- classification in fluorescence screen (thymidine kinase (TK) [2]): not considered to be tight binders

Molecule: Nc1c2ccccc2nc2ccccc12 [9-aminoacridine]
- reported affinity (hAChE): 30 to 100 nM

Molecule: 3-C15L8: SEQ ID NO: 3 NAADLEAKIRHLAEKLAARGPVDAAQLAEQLARRFEAFARAG
- [θ]222 at high concentration [1]: −23400 deg cm^2 dmol^−1
- [θ]222 at low concentration [1]: −19700 deg cm^2 dmol^−1

Molecule: 3-C10L17: SEQ ID NO: 7 NAADLEARIKHLAERLKARGPVDAAQLAEQLARAFEAFARAG
- [θ]222 at high concentration [1]: −22400 deg cm^2 dmol^−1
- [θ]222 at low concentration [1]: −20700 deg cm^2 dmol^−1

Molecule: benzenesulphonamidecarboxylic acid
- pKd (HCAI; listed as benzenesulphonamide): 5.40 to 6.00
- pKd (HCAI): 5.41 to 5.96

Molecule: 2-C25L22: SEQ ID NO: 10 NEADLEAAIRHLAEALAARGPKDAKQLAEQLARAFEAFARAG
- [θ]222 at high concentration [1]: −25000 deg cm^2 dmol^−1
- [θ]222 at low concentration [1]: −24800 deg cm^2 dmol^−1

Molecule: 4-C25L22-dT: polypeptide 4-C25L22 conjugated to deoxy-thymidine (dT) probe 19 (NAADLEARIRHLRERLAARGPKDAKQLAEQLARAFERFARAG; also: conjugated to deoxy-thymidine (dT) probe 19, site not given here)
- classification in fluorescence screen (thymidine kinase (TK) [2]): not considered to be tight binders
- binding affinity to TK (in words) (thymidine kinase (TK) [3]): generally good binding affinity
- time after which peptide is fully phosphorylated (MALDI-TOF) (thymidine kinase (TK) [3]): 5 to 10 min

Molecule: 1-C10L17: SEQ ID NO: 5 NAADLEAAIKHLAEALKERGPEDCEQLAEQLARAFEAFARAG
- [θ]222 at high concentration [1]: −18200 deg cm^2 dmol^−1
- [θ]222 at low concentration [1]: −11800 deg cm^2 dmol^−1

Molecule: 1-C15L8: SEQ ID NO: 1 NEADLEAKIRHLAEKLEARGPEDAEQLAEQLARAFEAFARAG
- [θ]222 at high concentration [1]: −17800 deg cm^2 dmol^−1
- [θ]222 at low concentration [1]: −25100 deg cm^2 dmol^−1

Molecule: 2-C15L8: SEQ ID NO: 2 NEADLEAKIRHLAEKLAARGPVDAAQLAEQLARAFEAFARAG
- [θ]222 at high concentration [1]: −24900 deg cm^2 dmol^−1
- [θ]222 at low concentration [1]: −20800 deg cm^2 dmol^−1

Molecule: 4-C37L34: SEQ ID NO: 16 NAADLEARIRHLRERLAARGPRDAAQLAEQLARKFEKFARAG
- [θ]222 at high concentration [1]: −19600 deg cm^2 dmol^−1
- [θ]222 at low concentration [1]: −14900 deg cm^2 dmol^−1

Molecule: 1-C25L22: SEQ ID NO: 9 NEADLEAAIRHLAEALEARGPKDAKQLAEQLARAFEAFERAG
- [θ]222 at high concentration [1]: −24800 deg cm^2 dmol^−1
- [θ]222 at low concentration [1]: −18000 deg cm^2 dmol^−1

Molecule: 3-C15L8-dT: polypeptide 3-C15L8 conjugated to deoxy-thymidine (dT) probe 19 (NAADLEAKIRHLAEKLAARGPVDAAQLAEQLARRFEAFARAG; also: conjugated to deoxy-thymidine (dT) probe 19, site not given here)
- binding affinity to TK (in words) (thymidine kinase (TK) [3]): good but not as good as for 4-C10L17-dT
- time after which peptide is fully phosphorylated (MALDI-TOF) (thymidine kinase (TK) [3]): 45 min

Molecule: 2-C10L17: SEQ ID NO: 6 NAADLEAAIKHLAEALKARGPVDAAQLAEQLARAFEAFARAG
- [θ]222 at high concentration [1]: −23400 deg cm^2 dmol^−1
- [θ]222 at low concentration [1]: −20400 deg cm^2 dmol^−1

Molecule: 4-C15L8: SEQ ID NO: 4 NAADLEAKIRHLREKLAARGPRDAAQLAEQLARRFERFARAG
- [θ]222 at high concentration [1]: −22000 deg cm^2 dmol^−1
- [θ]222 at low concentration [1]: −15300 deg cm^2 dmol^−1

Molecule: 4-C25L22: SEQ ID NO: 12 NAADLEARIRHLRERLAARGPKDAKQLAEQLARAFERFARAG
- [θ]222 at high concentration [1]: −23700 deg cm^2 dmol^−1
- [θ]222 at low concentration [1]: −18200 deg cm^2 dmol^−1

Molecule: 4-C10L17-dT: polypeptide 4-C10L17 conjugated to deoxy-thymidine (dT) probe 19 (NAADLEARIKHLRERLKARGPRDAAQLAEQLARAFERFARAG; also: conjugated to deoxy-thymidine (dT) probe 19, site not given here)
- binding affinity to TK (in words) (thymidine kinase (TK) [3]): strong binding affinity
- time after which peptide is fully phosphorylated (MALDI-TOF) (thymidine kinase (TK) [3]): 45 min

Molecule: 3-C37L34: SEQ ID NO: 15 NAADLEAAIRHLAERLAARGPVDAAQLAEQLARKFEKFARAG
- [θ]222 at high concentration [1]: −22500 deg cm^2 dmol^−1
- [θ]222 at low concentration [1]: −22200 deg cm^2 dmol^−1

Molecule: 2-C37L34-dT: polypeptide 2-C37L34 conjugated to deoxy-thymidine (dT) probe 19 (NAADLEAAIRHLAERLAARGPVDAAQLAEQLAAKFEKFARAG; also: conjugated to deoxy-thymidine (dT) probe 19, site not given here)
- classification in fluorescence screen (thymidine kinase (TK) [2]): not considered to be tight binders

Molecule: 3-C25L22: SEQ ID NO: 11 NAADLEAAIRHLAERLAARGPKDAKQLAEQLARAFEAFARAG
- [θ]222 at high concentration [1]: −26400 deg cm^2 dmol^−1
- [θ]222 at low concentration [1]: −23000 deg cm^2 dmol^−1

Molecule: 4-C15L8-dT: polypeptide 4-C15L8 conjugated to deoxy-thymidine (dT) probe 19 (NAADLEAKIRHLREKLAARGPRDAAQLAEQLARRFERFARAG; also: conjugated to deoxy-thymidine (dT) probe 19, site not given here)
- classification in fluorescence screen (thymidine kinase (TK) [2]): not considered to be tight binders

Molecule: Ac-NAADLEAK([Ahx-Benzoyl(4-SO2NH2)])IRHLAEK(X1)LAARGPVDAAQLAEQLARRFEAFARAG-NH2 (C-terminus assumed) [3-C15L8-B]
- proteins extracted from lysed blood [4]: extract Carbonic Anhydrases predominantly
